According to the supplement of paper PMC11811203:

B1: THAP1; numbered along this chain (parent)
chain: MVQSCSAYGCKNRYDKDKPVSFHKFPLTRPSLCKEWEAAVRRKNFKPTKYSSICSEHFTPDCFKRECNNKLLKENAVPTIFLCTEPHDKKEDLLEPQEQLPPPPLPPPVSQVDAAIGLLMPPLQTPVNLSVFCDHNYTVEDTMHQRKRIHQLEQQVEKLRKKLKTAQQRCRRQERQLEKLKEVVHFQKEKDDVSERGYVILPNDYFEIVEVPA

Variants of: B1
Experiment: THAP1 transcriptional activity (GFP+/GFP- enrichment relative to wild-type constructs) (ratio to WT); higher = more THAP1 activity (PSMB5 reporter activation)
Conditions: with PSMB5 promoter-GFP reporter
Method: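 Deep mutational scan of human THAP1. Site-saturation single amino acid variant library (residues 2-213) was expressed by lentivirus at MOI ~0.3 in THAP1-knockout HEK-293T cells carrying an endogenous PSMB5 promoter-GFP knock-in reporter. Five days post-transduction, BFP+ cells were FACS-sorted into GFP dim and GFP bright populations and variants were counted by Illumina sequencing. Activity is the GFP-bright/GFP-dim read fold change, mean of 2 replicates, divided by the mean fold change of wild-type (synonymous) constructs in the same screen pool; WT = 1.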

THAP1 transcriptional activity of substitutions, site by site:
H57: C 0.196 | R 0.183 | A 0.116 | S 0.121 | Y 0.115 | F 0.126 | P 0.0956 | K 0.126 | L 0.107 | N 0.0635 | M 0.138 | T 0.109 | Q 0.0983
S52: I 0.379 | H 0.251 | E 0.0459 | D 0.109 | G 0.141 | V 1.14 | Q 0.261 | K 0.641 | W 0.089 | T 1.41 | A 1.55 | P 0.096 | N 0.469 | C 1.57 | L 0.606 | Y 0.46 | F 0.325 | M 0.633
E56: P 0.0876 | V 0.83 | L 0.526 | R 0.389 | A 0.98 | S 0.473 | Y 0.194 | H 0.253 | W 0.249 | M 0.509 | T 0.336 | Q 0.873 | K 0.472 | I 0.6 | F 0.363 | C 0.263 | D 1.26 | G 0.114 | N 0.344
S55: Q 0.168 | A 0.112 | N 0.147 | R 0.113 | F 0.084 | Y 0.109 | E 0.127 | V 0.101 | K 0.0934 | I 0.114 | G 0.185 | H 0.0394 | L 0.106 | W 0.0398 | T 0.128 | P 0.0679 | D 0.077 | C 0.0655 | M 0.0662
C54: H 0.0812 | P 0.234 | F 0.105 | A 0.0793 | V 0.0511 | T 0.0761 | S 0.154 | N 0.106 | E 0.0874 | R 0.0929 | Q 0.0652 | G 0.0692 | K 0.097 | D 0.178 | L 0.0556 | M 0.0985 | I 0.0624 | Y 0.124 | W 0.107
C67: W 0.116 | V 0.777 | G 0.127 | S 0.964 | Q 0.239 | L 0.481 | M 0.594 | H 0.198 | R 0.502 | P 0.13 | A 0.639 | F 0.147 | I 0.198 | E 0.119 | Y 0.2 | T 1.19 | N 0.17 | K 0.472 | D 0.135
S51: Y 0.0754 | V 0.102 | K 0.121 | P 0.118 | G 0.0575 | M 0.26 | I 0.124 | R 0.0935 | W 0.122 | Q 0.0846 | N 0.16 | T 0.421 | L 0.111 | H 0.145
N69: A 0.111 | F 0.109 | C 0.181 | I 0.672 | K 0.133 | D 0.131 | H 0.344 | E 0.0951 | L 0.301 | G 0.122
C62: R 0.181 | A 0.523 | H 0.173 | V 0.0798 | F 0.151 | Q 0.74 | K 0.21 | G 0.113 | I 0.09 | E 0.143 | P 0.0987 | T 0.195 | Y 0.141 | S 1.72 | M 0.591 | D 1.01 | N 0.487 | W 0.113
D61: N 0.472 | Q 0.282 | L 0.209 | I 0.133 | H 0.228 | R 0.22 | Y 0.127 | C 0.198 | F 0.173 | G 0.219 | T 0.368 | V 0.101 | K 0.217 | P 0.104 | M 0.207 | S 0.312 | A 0.309 | W 0.145
